In the supplement of paper PMC10567573 one finds protein stability index data, which are given here for 94 variants.

First the molecules themselves.
B1: KLHDC10 (parent)
chain: CPIIRIPNRFLRGHRPPPARSGHR
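Note: lentivirally expressed fusions sorted by FACS into six bins by GFP to DsRed ratio, PSI derived from sequencing read proportions per bin multiplied by bin number.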

The variants in the data set derive from B1. Kind of data set: protein stability index of a GFP-peptide fusion (GPS, HEK-293T) (PSI 1-6); higher = more stable. Particulars: c terminus: a fixed tail appended.
For the variant CPIIRIPNRFLWGHRPPPARSGHR [R12W], the protein stability index came out at 2.5. Consider CPIIRIPNRFLIGHRPPPARSGHR [R12I], for which the protein stability index was 2.32. Next, CPIIRIPNRFLLGHRPPPARSGHR [R12L]: 2.25; CPIIRIPNRFLCGHRPPPARSGHR [R12C]: 1.28. Turning to CPIIRIPNRFLMGHRPPPARSGHR [R12M], the protein stability index came out at 1.06. On to CPIIRIPNRFLYGHRPPPARSGHR [R12Y], for which the protein stability index is 2.43. Turning to CPIIRIPNRFLRGHRPPAARSGHR [P18A], the protein stability index was found to be 1.51. Next, CPIIRIPNRFLRGHRPPLARSGHR [P18L]: 1.47; CPIIRIPNRFLRGHRPPSARSGHR [P18S]: 2.37. Next, CPIIRIPNRFLRGHRPPQARSGHR [P18Q]: 1.78; CPIIRIPNRFLRGHRPPWARSGHR [P18W]: 1.85; CPIIRIPNRFLRGHRPPGARSGHR [P18G]: 2.95. On to CPIIRIPNRFLRGHRPPMARSGHR [P18M], for which the protein stability index came out at 1.74. Next, CPIIRIPNRFLRGHRPPNARSGHR [P18N]: 2.43. Next, CPIIRIPNRFLRGHRPPPARSGHY [R24Y]: 1.7; CPIIRIPNRFLRGHRPPPARSGHE [R24E]: 1.59.

With CPIIRIPNRFLRGHRPPPARSGHK [R24K], the protein stability index worked out at 1.29. Next, KPIIRIPNRFLRGHRPPPARSGHR [C1K]: 3.56; QPIIRIPNRFLRGHRPPPARSGHR [C1Q]: 4.42. Next, MPIIRIPNRFLRGHRPPPARSGHR [C1M]: 3.21. For the variant TPIIRIPNRFLRGHRPPPARSGHR [C1T], the protein stability index amounted to 3.29. Next, DPIIRIPNRFLRGHRPPPARSGHR [C1D]: 2.89; LPIIRIPNRFLRGHRPPPARSGHR [C1L]: 2.68. Next, NPIIRIPNRFLRGHRPPPARSGHR [C1N]: 3.73; CPIIRIPNRFLRGHRPPPAGSGHR [R20G]: 1.95. For CPIIRIPNRFLRGHRPPPACSGHR [R20C], the protein stability index was found to be 1.48. With CPIIRIPNRFLRGHRPPPAMSGHR [R20M], the protein stability index came out at 2.13. Next, CPIIRIPNRFLRGHRPPPAISGHR [R20I]: 1.38; CPIIRIPNRFLRQHRPPPARSGHR [G13Q]: 2.36; CPIIRIPNRFLRFHRPPPARSGHR [G13F]: 1.81.

CPIIRIPNRFLRNHRPPPARSGHR [G13N]: the protein stability index worked out at 2.2. Next, CPIIRIPNRFLRYHRPPPARSGHR [G13Y]: 1.88. Next, CPIIRIPNRFLRMHRPPPARSGHR [G13M]: 1.9. Next, CPIIRIPNRFLRPHRPPPARSGHR [G13P]: 1.48; CPIIRIPNRFLRDHRPPPARSGHR [G13D]: 1.55. On to CPIIRIPNRFLRHHRPPPARSGHR [G13H], for which the protein stability index is 1.98. Next, CPIIRIPNRFLREHRPPPARSGHR [G13E]: 1.38. Next, CPIIRIPNRFLRGHRPPPARSGYR [H23Y]: 2.01; CPIIRIPNRFLRGHRPPPARSGIR [H23I]: 1.82; CPIIRIPNRFLRGHRPPPARSGLR [H23L]: 1.12. Regarding CPIIRIPNRFLRGHRPPPARSGGR [H23G], the protein stability index was 2.02.

On to CPIIRIPNRFLRGHRPPPARSGMR [H23M], for which the protein stability index stood at 1.49. Next, CPIIRIPNRFLRGHRPPPARSGER [H23E]: 1.66; CPIIRIPNRFLRGHRPPPARSGPR [H23P]: 1.67. Next, CPIIRIGNRFLRGHRPPPARSGHR [P7G]: 3.71; CPIIRILNRFLRGHRPPPARSGHR [P7L]: 2.25; CPIIRIQNRFLRGHRPPPARSGHR [P7Q]: 3.04.

Consider CPIIRIPNRFLRGHEPPPARSGHR [R15E], for which the protein stability index came to 1.92.

Consider CPIIRIPNRFLRGHQPPPARSGHR [R15Q], for which the protein stability index is 2.44.

With CPIIRIPNRFLRGHFPPPARSGHR [R15F], the protein stability index is 1.43.

For the variant CPIIRIPNRFLRGHWPPPARSGHR [R15W], the protein stability index amounted to 1.47.

With CPIIRIPNRFLRGHKPPPARSGHR [R15K], the protein stability index is 2.19.

In the case of CPIIRIPNRFLRGHVPPPARSGHR [R15V], the protein stability index turned out to be 1.84. Next, CPIIRIPNRFLRGHYPPPARSGHR [R15Y]: 1.51; CPIIRIPNRFLRGGRPPPARSGHR [H14G]: 1.46. In the case of CPIIRIPNRFLRGARPPPARSGHR [H14A], the protein stability index was 1.96. Next, CPIIRIPNRFLRGPRPPPARSGHR [H14P]: 2.15. Next, CPIIRIPNRFLRGRRPPPARSGHR [H14R]: 1.76; CPIIRIPNRFLRGCRPPPARSGHR [H14C]: 1.48; CPIIRIPNRFLRGIRPPPARSGHR [H14I]: 1.87. Next, CPIIRIPNRFLRGERPPPARSGHR [H14E]: 2.22; CPIIRIPNRKLRGHRPPPARSGHR [F10K]: 1.71. Take CPIIRIPNRWLRGHRPPPARSGHR [F10W]: the protein stability index was 2.38. Next, CPIIRIPNRPLRGHRPPPARSGHR [F10P]: 1.45. Next, CPIIRIPNRSLRGHRPPPARSGHR [F10S]: 2.12. Next, CPIIRIPNRYLRGHRPPPARSGHR [F10Y]: 1.8. As to CPIIRIPNRFLRGHRPPPARLGHR [S21L], the protein stability index was 1.97. Next, CPIIRIPNRFLRGHRPPPARFGHR [S21F]: 2.91; CPIIRIPNRFLRGHRPPPARNGHR [S21N]: 2.25. Next, CPIIRIPNRFLRGHRPPPARMGHR [S21M]: 1.66; CPIIRVPNRFLRGHRPPPARSGHR [I6V]: 2.77.

Take CPIIRPPNRFLRGHRPPPARSGHR [I6P]: the protein stability index stood at 4.35. Next, CPIIRAPNRFLRGHRPPPARSGHR [I6A]: 3.29; CPIIRYPNRFLRGHRPPPARSGHR [I6Y]: 4.09. Next, CPIIRQPNRFLRGHRPPPARSGHR [I6Q]: 2.77. Next, CPIIRWPNRFLRGHRPPPARSGHR [I6W]: 4.13.

Take CPIIRSPNRFLRGHRPPPARSGHR [I6S]: the protein stability index is 2.04. With CPIIRMPNRFLRGHRPPPARSGHR [I6M], the protein stability index is 2.64. Next, CPIIRCPNRFLRGHRPPPARSGHR [I6C]: 2.4; CPIIRNPNRFLRGHRPPPARSGHR [I6N]: 4.01. Next, CPIIRKPNRFLRGHRPPPARSGHR [I6K]: 3.37; CPIIRIPNHFLRGHRPPPARSGHR [R9H]: 2.32; CPIIRIPNSFLRGHRPPPARSGHR [R9S]: 2.12. Next, CPIIRIPNLFLRGHRPPPARSGHR [R9L]: 2.36; CPIIRIPNRFLRGHRPSPARSGHR [P17S]: 2.27.

Take CPIIRIPNRFLRGHRPDPARSGHR [P17D]: the protein stability index was found to be 1.63. Next, CPIIRIPNRFLRGHRPCPARSGHR [P17C]: 1.21; CPIIRIPNRFLRGHRPFPARSGHR [P17F]: 1.81; CPIIRIPNRFLRGHRPTPARSGHR [P17T]: 1.64. Turning to CPIIRIPNRFVRGHRPPPARSGHR [L11V], the protein stability index was 2.83. In the case of CPIIRIPNRFGRGHRPPPARSGHR [L11G], the protein stability index worked out at 2.3. Next, CPIIRIPNRFWRGHRPPPARSGHR [L11W]: 1.7; CPIIRIPNRFCRGHRPPPARSGHR [L11C]: 1.4.

As for CPIIRIPNRFRRGHRPPPARSGHR [L11R], the protein stability index came out at 2.54.
